Test results reported in patent US20050054090A1 (Scripps Research, published 2005).

Biological target: T1, murine IA^d MHC class II heterodimer expressed on the surface of Drosophila S2 cells (murine, UniProt P04228 24-256; P01921 28-265)
T1 construct: whole, on cells; Expressed without peptide on Drosophila S2 cells, alone or with accessory molecules; also called H2-A^d; recombinant MHC class II
T1 sequence (MHC II alpha, looked up): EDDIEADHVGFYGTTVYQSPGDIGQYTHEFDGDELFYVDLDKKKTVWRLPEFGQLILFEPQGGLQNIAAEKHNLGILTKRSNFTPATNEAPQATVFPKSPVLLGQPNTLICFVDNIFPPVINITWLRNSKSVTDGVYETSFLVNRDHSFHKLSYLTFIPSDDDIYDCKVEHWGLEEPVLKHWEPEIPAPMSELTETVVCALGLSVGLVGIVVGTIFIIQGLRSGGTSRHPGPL
T1 sequence (MHC II beta, looked up): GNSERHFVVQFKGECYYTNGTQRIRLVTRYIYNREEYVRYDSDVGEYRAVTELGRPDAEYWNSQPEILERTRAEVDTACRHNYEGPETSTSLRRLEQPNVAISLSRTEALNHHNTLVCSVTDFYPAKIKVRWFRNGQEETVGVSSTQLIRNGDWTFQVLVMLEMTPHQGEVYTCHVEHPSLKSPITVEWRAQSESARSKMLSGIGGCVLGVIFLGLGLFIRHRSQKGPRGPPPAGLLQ
Test: inferred by the filing from OVA-peptide-dose-dependent T cell proliferation with peptide-loaded Drosophila APC; no direct binding assay
Procedure: Proliferation is assayed as described in Example 5. The proliferation is measured in counts per minute (cpm)×1000 as plotted on the Y-axis against increasing concentrations of OVA peptide in μM on the X-axis. […] Proliferative responses with recombinant MHC class II alone are shown in the line having closed circles. Those with MHC class II combined with either costimulatory molecules B7.1 or B7.2 are shown respectively with lines having open and closed squares.
The effect of peptide presentation in the presence of MHC class II with and without accessory molecules, B7.1, B7.2 or B7.2 plus ICAM-1, was first assessed in a proliferation assay performed as described by Webb et al., Cell, 63:1249 (1990). Briefly, 5×10⁴ CD4⁺ T cells were cultured in microtiter wells with 5×10⁴ Drosophila cells in 300 μl of culture medium. Eighteen hours prior to harvesting, 100 μl of supernatant were removed for cytokine analysis and 1 μCi of ³H-thymidine was added to each well. At the times indicated (3, 4 or 5 days), the wells were individually harvested onto glass fiber filters and counted in a liquid scintillation counter.

binding result: binds
B1: ovalbumin323-339 (OVA) peptide (peptide)
peptide: ISQAVHAAHAEINEAGR
notes: Chemically synthesized by T-BOC chemistry and added to the cultures; also called ovalbumin peptide 323-339
